Patent publication US20250011363A1, “OPTIMIZED SHORTENED PEPTIDE THAT BINDS TO ACETYLCHOLINE RECEPTOR, AND USE THEREOF” (SKINMED CO., LTD., priority 2021, published 2025)

B1: 6mer-1-860 (peptide)
peptide: RKHWWR
B2: 6mer-2-362 (peptide)
peptide: RGRQKR
B3: 6mer-2-375 (peptide)
peptide: RVVQKK
B4: 6mer-2-398 (peptide)
peptide: RQQRRR
B5: 6mer-2-340 (peptide)
peptide: RRLTRR
B6: 6mer-2-369 (peptide)
peptide: KVVRRR
B7: 6mer-2-392 (peptide)
peptide: RQILKR
B8: 6mer-2-397 (peptide)
peptide: RSIYRK
B9: 6mer-2-356 (peptide)
peptide: RLLQRR
B10: 6mer-1-853 (peptide)
peptide: KRCNGR
B11: 6mer-1-859 (peptide)
peptide: RKCMVK
B12: 6mer-2-344 (peptide)
peptide: KGIRRK
B13: 6mer-2-336 (peptide)
peptide: KLITKR
B14: 6mer-2-372 (peptide)
peptide: KLVQRR
B15: 6mer-2-376 (peptide)
peptide: KQQCKR
B16: 6mer-2-360 (peptide)
peptide: KGVRRR
B17: 6mer-2-371 (peptide)
peptide: KRLSRR
B18: 6mer-2-370 (peptide)
peptide: KSLLRR
B19: 6mer-2-357 (peptide)
peptide: RGQRKK
B20: 6mer-2-335 (peptide)
peptide: KWRSRR
B21: 6mer-2-349 (peptide)
peptide: RRLSRR
B22: 6mer-2-385 (peptide)
peptide: RGVCKR
B23: 6mer-2-351 (peptide)
peptide: KLYTKR
B24: 6mer-2-361 (peptide)
peptide: RSFQRR
B25: 6mer-2-388 (peptide)
peptide: KRFQKK
B26: 6mer-2-353 (peptide)
peptide: RLQTKK
B27: 6mer-2-368 (peptide)
peptide: RLRTRR
B28: 6mer-2-380 (peptide)
peptide: RLVYRK
B29: 6mer-2-383 (peptide)
peptide: KLVRRK
B30: 6mer-2-399 (peptide)
peptide: RWLTRR
B31: 6mer-2-373 (peptide)
peptide: KLIYRK
B32: 6mer-1-865 (peptide)
peptide: KKMTAR
B33: 6mer-2-367 (peptide)
peptide: RWRSRR
B34: 6mer-2-379 (peptide)
peptide: RGVQKR
B35: 6mer-2-396 (peptide)
peptide: KWLQRR
B36: 6mer-2-338 (peptide)
peptide: RSVQKR
B37: 6mer-2-374 (peptide)
peptide: KRQLKK
B38: 6mer-2-345 (peptide)
peptide: KSRQKK
B39: 6mer-1-855 (peptide)
peptide: RKCDVR
B40: 6mer-1-861 (peptide)
peptide: KRINIR
B41: 6mer-2-358 (peptide)
peptide: RQIYKK
B42: 6mer-2-354 (peptide)
peptide: RWISKK
B43: 6mer-1-862 (peptide)
peptide: KKHSEK
B44: 6mer-2-386 (peptide)
peptide: KWQSKR
B45: 6mer-2-342 (peptide)
peptide: KRYRKK
B46: 6mer-2-387 (peptide)
peptide: KWLCKK
B47: 6mer-2-339 (peptide)
peptide: KQVYKK
B48: 6mer-1-854 (peptide)
peptide: KKEAVR
B49: 6mer-2-394 (peptide)
peptide: KLVLKR
B50: 6mer-2-350 (peptide)
peptide: RGQTRK
B51: 6mer-1-864 (peptide)
peptide: RRTWGR
B52: 6mer-2-391 (peptide)
peptide: KQYQKR
B53: 6mer-2-384 (peptide)
peptide: RSFQKK
B54: 6mer-2-365 (peptide)
peptide: RWRYRR
B55: 6mer-2-366 (peptide)
peptide: KQYYRR
B56: 6mer-2-395 (peptide)
peptide: KWRYRR
B57: 6mer-2-337 (peptide)
peptide: KQFQKK
B58: 6mer-2-382 (peptide)
peptide: KSVSRR
B59: 6mer-2-347 (peptide)
peptide: RRYSKK
B60: 6mer-2-390 (peptide)
peptide: KWLRRR
B61: 6mer-2-381 (peptide)
peptide: KVYRRR
B62: 6mer-2-363 (peptide)
peptide: KSIYRK
B63: 6mer-1-856 (peptide)
peptide: KRMWFK
B64: 6mer-1-863 (peptide)
peptide: RRCTER
B65: 6mer-2-393 (peptide)
peptide: RGLQRK
B66: 6mer-1-858 (peptide)
peptide: KKKHKR
B67: 6mer-2-346 (peptide)
peptide: KRFSKK
B68: 6mer-2-389 (peptide)
peptide: KSLYKK
B69: 6mer-2-364 (peptide)
peptide: KVFTKK
B70: 6mer-2-343 (peptide)
peptide: KQISKK
B71: 6mer-2-355 (peptide)
peptide: RGIRKK
B72: 6mer-1-857 (peptide)
peptide: KRPAFK
B73: 6mer-2-341 (peptide)
peptide: KVVTKR
B74: 6mer-2-378 (peptide)
peptide: KRFQRK
B75: 6mer-2-348 (peptide)
peptide: KSQLRR
B76: 6mer-2-359 (peptide)
peptide: RLFCKK
B77: 6mer-2-377 (peptide)
peptide: RRYCRR
B78: 6mer-2-352 (peptide)
peptide: RWFYRR

molecular target: acetylcholine receptor; experiment: SPR, AchR immobilized on CM5 chip, peptide at 10 uM

Row | Binder | Binding affinity (RU)
1 | B1 | 22
2 | B2 | 154
3 | B3 | 131
4 | B4 | 141
5 | B5 | 122
6 | B6 | 145
7 | B7 | 149
8 | B8 | 154
9 | B9 | 145
10 | B10 | 30
11 | B11 | 27
12 | B12 | 148
13 | B13 | 135
14 | B14 | 141
15 | B15 | 141
16 | B16 | 141
17 | B17 | 148
18 | B18 | 142
19 | B19 | 151
20 | B20 | 153
21 | B21 | 137
22 | B22 | 154
23 | B23 | 135
24 | B24 | 153
25 | B25 | 139
26 | B26 | 137

Row | Binder | Binding affinity (RU)
27 | B27 | 142
28 | B28 | 141
29 | B29 | 128
30 | B30 | 148
31 | B31 | 139
32 | B32 | 21
33 | B33 | 142
34 | B34 | 127
35 | B35 | 122
36 | B36 | 145
37 | B37 | 125
38 | B38 | 148
39 | B39 | 15
40 | B40 | 21
41 | B41 | 154
42 | B42 | 135
43 | B43 | 32
44 | B44 | 136
45 | B45 | 145
46 | B46 | 146
47 | B47 | 151
48 | B48 | 16
49 | B49 | 141
50 | B50 | 148
51 | B51 | 32
52 | B52 | 141

Row | Binder | Binding affinity (RU)
53 | B53 | 142
54 | B54 | 121
55 | B55 | 142
56 | B56 | 148
57 | B57 | 142
58 | B58 | 148
59 | B59 | 148
60 | B60 | 145
61 | B61 | 139
62 | B62 | 147
63 | B63 | 30
64 | B64 | 27
65 | B65 | 145
66 | B66 | 27
67 | B67 | 153
68 | B68 | 153
69 | B69 | 154
70 | B70 | 146
71 | B71 | 124
72 | B72 | 14
73 | B73 | 144
74 | B74 | 131
75 | B75 | 153
76 | B76 | 136
77 | B77 | 142
78 | B78 | 137
